# Results taken from US20180237508A1.
# Tests used:
# [1] = target: Human cytokeratin-8 (CK8) at the cell surface of human cancer cell lines (human) (UniProt P05787); assay: flow cytometry, ISRECO-1 cells, MAb 5 ug/mL
# [2] = target: Human cytokeratin-8 (CK8) at the cell surface of human cancer cell lines (human) (UniProt P05787); assay: flow cytometry, HT29 cells, MAb 5 ug/mL
# [3] = target: Human cytokeratin-8 (CK8) at the cell surface of human cancer cell lines (human) (UniProt P05787); assay: flow cytometry, ISRECO-2 cells, MAb 5 ug/mL
# [4] = target: Human cytokeratin-8 (CK8) at the cell surface of human cancer cell lines (human) (UniProt P05787); assay: flow cytometry, MCF-7 cells, MAb 5 ug/mL
# [5] = target: Human cytokeratin-8 (CK8) at the cell surface of human cancer cell lines (human) (UniProt P05787); assay: flow cytometry, ISRECO-3 cells, MAb 5 ug/mL
# [6] = target: Human cytokeratin-8 (CK8) at the cell surface of human cancer cell lines (human) (UniProt P05787); assay: flow cytometry, HCT116-/- cells, MAb 5 ug/mL
# [7] = target: Human cytokeratin-8 (CK8) at the cell surface of human cancer cell lines (human) (UniProt P05787); assay: flow cytometry, HCT116 +/+ cells, MAb 5 ug/mL
# Human cytokeratin-8 (CK8) at the cell surface of human cancer cell lines (human), sequence (P05787 whole entry): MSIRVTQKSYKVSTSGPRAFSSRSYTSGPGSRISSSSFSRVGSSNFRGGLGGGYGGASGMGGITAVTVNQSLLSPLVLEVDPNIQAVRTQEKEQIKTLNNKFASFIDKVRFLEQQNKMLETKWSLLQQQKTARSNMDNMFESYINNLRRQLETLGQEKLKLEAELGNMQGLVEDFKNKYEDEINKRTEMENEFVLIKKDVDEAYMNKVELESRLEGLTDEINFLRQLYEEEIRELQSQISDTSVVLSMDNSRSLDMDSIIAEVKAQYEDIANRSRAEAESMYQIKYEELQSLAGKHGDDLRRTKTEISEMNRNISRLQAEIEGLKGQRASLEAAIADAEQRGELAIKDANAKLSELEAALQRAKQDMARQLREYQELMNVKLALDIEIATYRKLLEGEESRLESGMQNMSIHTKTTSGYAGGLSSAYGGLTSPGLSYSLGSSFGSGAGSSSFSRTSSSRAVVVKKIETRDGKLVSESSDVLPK
% (labelled cells) [1],IFM [1],% (labelled cells) [2],IFM [2],% (labelled cells) [3],IFM [3],% (labelled cells) [4],IFM [4],% (labelled cells) [5],IFM [5],% (labelled cells) [6],IFM [6],% (labelled cells) [7],IFM [7],Substance
50%,553,17%,497,26%,473,66%,476,33%,541,28%,517,29%,527,"M20 antibody (commercially available antibody C5301, Sigma)"
45%,562,30%,418,23%,424,52%,462,41%,402,38%,530,35%,554,"1E8 antibody (commercially available antibody ab28050, abcam)"
